Results reported in IntAct's records for PubMed 17128263.

B1: 1-phosphatidylinositol 4,5-bisphosphate phosphodiesterase gamma-1 (Rattus norvegicus (Rat)), P10686 (parent)
chain: MAGVGTPCANGCGPSAPSEAEVLHLCRSLEVGTVMTLFYSKKSQRPERKTFQVKLETRQITWSRGADKIEGSIDIREIKEIRPGKTSRDFDRYQEDPAFRPDQSHCFVILYGMEFRLKTLSLQATSEDEVNMWIKGLTWLMEDTLQAATPLQIERWLRKQFYSVDRNREDRISAKDLKNMLSQVNYRVPNMRFLRERLTDFEQRSGDITYGQFAQLYRSLMYSAQKTMDLPFLETNTLRTGERPELCQVSLSEFQQFLLEYQGELWAVDRLQVQEFMLSFLRDPLREIEEPYFFLDELVTFLFSKENSVWNSQLDAVCPETMNNPLSHYWISSSHNTYLTGDQFSSESSLEAYARCLRMGCRCIELDCWDGPDGMPVIYHGHTLTTKIKFSDVLHTIKEHAFVASEYPVILSIEDHCSIAQQRNMAQHFRKVLGDTLLTKPVDIAADGLPSPNQLKRKILIKHKKLAEGSAYEEVPTSVMYSENDISNSIKNGILYLEDPVNHEWYPHYFVLTSSKIYYSEETSSDQGNEDEEEPKEASGSTELHSSEKWFHGKLGAGRDGRHIAERLLTEYCIETGAPDGSFLVRESETFVGDYTLSFWRNGKVQHCRIHSRQDAGTPKFFLTDNLVFDSLYDLITHYQQVPLRCNEFEMRLSEPVPQTNAHESKEWYHASLTRAQAEHMLMRVPRDGAFLVRKRNEPNSYAISFRAEGKIKHCRVQQEGQTVMLGNSEFDSLVDLISYYEKHPLYRKMKLRYPINEEALEKIGTAEPDYGALYEGRNPGFYVEANPMPTFKCAVKALFDYKAQREDELTFTKSAIIQNVEKQDGGWWRGDYGGKKQLWFPSNYVEEMINPAILEPEREHLDENSPLGDLLRGVLDVPACQIAIRPEGKNNRLFVFSISMPSVAQWSLDVAADSQEELQDWVKKIREVAQTADARLTEGKMMERRKKIALELSELVVYCRPVPFDEEKIGTERACYRDMSSFPETKAEKYVNKAKGKKFLQYNRLQLSRIYPKGQRLDSSNYDPLPMWICGSQLVALNFQTPDKPMQMNQALFMAGGHCGYVLQPSTMRDEAFDPFDKSSLRGLEPCVICIEVLGARHLPKNGRGIVCPFVEIEVAGAEYDSTKQKTEFVVDNGLNPVWPAKPFHFQISNPEFAFLRFVVYEEDMFSDQNFLAQATFPVKGLKTGYRAVPLKNNYSEDLELASLLIKIDIFPAKENGDLSPFSGTSLRERASDASSQLFHVRAREGSFEARYQQPFEDFRISQEHLADHFDSRERRAPRRTRVNGDNRL
partner: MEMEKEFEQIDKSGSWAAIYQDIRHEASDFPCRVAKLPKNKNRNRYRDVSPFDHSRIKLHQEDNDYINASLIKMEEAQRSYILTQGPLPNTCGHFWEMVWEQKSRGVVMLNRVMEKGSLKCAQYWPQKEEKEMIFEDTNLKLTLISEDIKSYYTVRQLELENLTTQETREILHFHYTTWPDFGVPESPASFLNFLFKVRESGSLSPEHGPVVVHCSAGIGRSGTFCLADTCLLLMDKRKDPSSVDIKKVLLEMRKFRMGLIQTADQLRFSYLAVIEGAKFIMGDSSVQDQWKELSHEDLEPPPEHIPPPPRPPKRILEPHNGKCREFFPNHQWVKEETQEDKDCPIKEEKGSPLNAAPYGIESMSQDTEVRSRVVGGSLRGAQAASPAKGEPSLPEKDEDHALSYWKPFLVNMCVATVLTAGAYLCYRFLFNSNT
B2: 1-phosphatidylinositol 4,5-bisphosphate phosphodiesterase gamma-1 (Rattus norvegicus (Rat)), P10686 (parent)
chain: B1 chain

Variants of: B1
Details: with ptn1_human PTPN1, P18031

effect of a mutation on the interaction | Variant
disrupting interaction | P842K

Variants of: B1
Details: with ptn1_human PTPN1, P18031
Remark: another data set of the same source

effect of a mutation on the interaction | Variant
disrupting interaction | R586K

Variants of: B2
Details: with jak2_mouse Jak2, Q62120

effect of a mutation on the interaction | Variant
disrupting interaction | R586K
